Literature values as cited in US20260217837A1, “FGFR3 BINDING MOLECULES AND METHODS OF USE THEREOF” (Regeneron Pharmaceuticals, Inc., priority 2023, published 2026).
Substitutions are numbered along the chain they refer to.

B1: MS-Pro-55: anti-FGFR3 Ig-like domain 3 antibody of WO 2002/102972 A2; SEQ ID NO: 44/45 (antibody, V domains shown)
VH: QVQLVQSGAEVKKPGASVKVSCKASGYTFTSYYMHWVRQAPGQGLEWMGWINPNSGGTNYAQKFQGRVTMTRDTSISTAYMELSSLRSEDTAVYYCARSMNSTMYWYLRRVLFDHWGQGTLVTVSS
VL: DIALTQPASVSGSPGQSITISCTGTSSDVGGYNYVSWYQQHPGKAPKLMIYDVSNRPSGVSNRFSGSKSGNTASLTISGLQAEDEADYYCQSYDMYNYIVFGGGTKLTVLGQ
B2: PRO-055: anti-FGFR3 IIIc antibody of WO 2006/048877 A2; SEQ ID NO: 44/45 (antibody, V domains shown)
VH: B1 VH
VL: B1 VL
B3: PRO-029: anti-FGFR3 IIIc antibody of WO 2006/048877 A2; SEQ ID NO: 40/49 (antibody, V domains shown)
VH: QVQLVQSGAEVKKPGASVKVSCKASGYTFTSYYMHWVRQAPGQGLEWMGWINPNSGGTNYAQKFQGRVTMTRDTSISTAYMELSSLRSEDTAVYYCARTWQYSYFYYLDGGYYFDIWGQGTLVTVSS
VL: DIVLTQSPATLSLSPGERATLSCRASQSVSSSYLAWYQQKPGQAPRLLIYGASSRATGVPARFSGSGSGTDFTLTISSLEPEDFATYYCQQTNNAPVTFGQGTKVEIKRT
B4: 15D8: anti-FGFR3 Igl 3 antibody of WO 2010/002862 A2; SEQ ID NO: 51/52 (antibody, V domains shown)
VH: EIQLQQSGPELVKPGASVKVSCKASGYAFTSYNMYWVKQSHGKSLEWIGYIDPYNGGTSYNQKFKGKATLTVDKSSSTAYMHLNSLTSEDSAVYYCAREGGNYEAWFAYWGQGTLVTVSA
VL: QIVLTQSPALMSASPGEKVTMTCSASSSVSYMYWYQQKPRSSPKPWIYLTSYLASGVPARFSGSGSGTSYSLTISSMEAEDAATYYCQQWSSYPLTFGAGTKLELK
B5: 27H2: anti-FGFR3 Igl 3 antibody of WO 2010/002862 A2; SEQ ID NO: 53/54 (antibody, V domains shown)
VH: B4 VH with S59R, L70M
VL: B4 VL with Y52N, Y93N
B6: 2G4: anti-FGFR3 Igl 3 antibody of WO 2010/002862 A2; SEQ ID NO: 55/54 (antibody, V domains shown)
VH: B4 VH with S59R, Y60D
VL: B4 VL with Y52N, Y93N
B7: PRO-026: anti-FGFR3 IIIc antibody of WO 2006/048877 A2; SEQ ID NO: 36/37 (antibody, V domains shown)
VH: QVQLVQSGAEVKKPGASVKVSCKASGYTFTSYYMHWVRQAPGQGLEWMGWINPNSGGTNYAQKFQGRVTMTRDTSISTAYMELSSLRSEDTAVYYCARGYWYAYFTYINYGYFDNWGQGTLVTVSS
VL: DIALTQPASVSGSPGQSITISCTGTSSDVGGYNYVSWYQQHPGKAPKLMIYDVSNRPSGVSNRFSGSKSGNTASLTISGLQAEDEADYYCQSYDNNSDWFGGGTKLTVLGQ
B8: MS-Pro-54: anti-FGFR3 Ig-like domain 3 antibody of WO 2002/102972 A2; SEQ ID NO: 42/43 (antibody, V domains shown)
VH: QVQLVQSGAEVKKPGASVKVSCKASGYTFTSYYMHWVRQAPGQGLEWMGWINPNSGGTNYAQKFQGRVTMTRDTSISTAYMELSSLRSEDTAVYYCARNMAYTNYQYVNMPHFDYWGQGTLVTVSS
VL: DIELTQPPSVSVAPGQTARISCSGDALGDKYASWYQQKPGQAPVLVIYDDSDRPSGIPERFSGSNSGNTATLTISGTQAEDEADYCQSYDYFKLVFGGGTKLTVLGQ
B9: PRO-054: anti-FGFR3 IIIc antibody of WO 2006/048877 A2; SEQ ID NO: 42/50 (antibody, V domains shown)
VH: B8 VH
VL: DIELTQPPSVSVAPGQTARISCSGDALGDKYASWYQQKPGQAPVLVIYDDSDRPSGIPERFSGSNSGNTATLTISGTQAEDEADYYCQSYDYFKLVFGGGTKLTVLGQ
B10: PRO-001: anti-FGFR3 antibody of WO 2006/048877 A2; SEQ ID NO: 46/29 (antibody, V domains shown)
VH: QVQLQQSGPGLVKPSQTLSLTCAISGDSVSSNSAAWNWIRQSPGRGLEWLGRTYYRSKWYNDYAVSVKSRITINPDTSKNQFSLQLNSVTPEDTAVYYCARSYYPDFDYWGQGTLVTVSS
VL: DIELTQPPSVSVAPGQTARISCSGDALGDKYASWYQQKPGQAPVLVIYDDSDRPSGIPERFSGSNSGNTATLTISGTQAEDEADYYCQSYDGPDLWVFGGGTKLTVLGQ
B11: PRO-002: anti-FGFR3 antibody of WO 2006/048877 A2; SEQ ID NO: 24/25 (antibody, V domains shown)
VH: QVQLVQSGAEVKKPGASVKVSCKASGYTFTSYYMHWVRQAPGQGLEWMGWINPNSGGTNYAQKFQGRVTMTRDTSISTAYMELSSLRSEDTAVYYCARDFLGYEFDYWGQGTLVTVSS
VL: B10 VL with G92Y, P93S, D94A, L95D, W96Y
B12: PRO-012: anti-FGFR3 antibody of WO 2006/048877 A2; SEQ ID NO: 47/27 (antibody, V domains shown)
VH: QVQLKESGPALVKPTQTLTLTCTFSGFSLSTSGVGVGWIRQPPGKALEWLALIDWDDDKYYSTSLKTRLTISKDTSKNQVVLTMTNMDPVDTATYYCARYHSWYEMGYYGSTVGYMFDYWGQGTLVTVSS
VL: B9 VL with Y92F, F93D, K94F, L95A
B13: MS-PRO-12: anti-FGFR3 Ig-like domain 2 antibody of WO 2002/102972 A2; SEQ ID NO: 26/27 (antibody, V domains shown)
VH: QVQLKESGPALVKPQTLTLTCTFSGFSLSTSGVGVGWIRQPPGKALEWLALIDWDDDKYYSTSLKTRLTISKDTSKNQVVLTMTNMDPVDTATYYCARYHSWYEMGYYGSTVGYMFDYWGQGTLVTVSS
VL: B9 VL with Y92F, F93D, K94F, L95A

tested on: FGFR3; settings: Exemplary FGFR3 D3 binding sequences; antibodies of cited PCT publications

Molecule | Activity
B1 | Antagonistic
B2 | Antagonistic
B3 | Antagonistic
B4 | Antagonistic
B5 | Antagonistic
B6 | Antagonistic
B7 | Antagonistic
B8 | Antagonistic
B9 | Antagonistic

same assay, conditions: Table T-1, exemplary FGFR3 parental antibodies of cited publications

Molecule | Activity
B1 | Antagonistic
B2 | Antagonistic
B10 | Antagonistic
B11 | Antagonistic
B3 | Antagonistic
B4 | Antagonistic
B5 | Antagonistic
B6 | Antagonistic
B12 | Antagonistic
B13 | Antagonistic
B7 | Antagonistic
B8 | Antagonistic
B9 | Antagonistic
